In the Immune Epitope Database (IEDB):

What was measured:
[1] = target: HLA-A*26:01; experiment: IEDB peptide-MHC binding, purified MHC/direct/fluorescence; filed as Kd, often an IC50 or EC50 that approximates it; ≥ and ≤ were set here for values at or beyond the usual limits of such assays
[2] = target: HLA-B*08:01; experiment: as above
[3] = target: HLA-A*11:01; experiment: as above
[4] = target: HLA-A*69:01; experiment: as above
[5] = target: HLA-A*31:01; experiment: as above
[6] = target: HLA-B*40:01; experiment: as above
[7] = target: HLA-B*27:05; experiment: as above
[8] = target: HLA-B*15:01; experiment: as above
[9] = target: HLA-A*01:01; experiment: as above
[10] = target: HLA-A*30:01; experiment: as above
[11] = target: HLA-B*07:02; experiment: as above
[12] = target: HLA-A*24:03; experiment: as above
[13] = target: HLA-B*44:02; experiment: as above
[14] = target: HLA-B*58:01; experiment: as above
[15] = target: HLA-A*02:01; experiment: as above
[16] = target: HLA-A*03:01; experiment: as above
[17] = target: HLA-A*02:19; experiment: IEDB peptide-MHC binding, purified MHC/competitive/fluorescence; filed as Kd, often an IC50 or EC50 that approximates it; ≥ and ≤ were set here for values at or beyond the usual limits of such assays
[18] = target: HLA-A*69:01; experiment: as above
[19] = target: HLA-B*27:03; experiment: as above
[20] = target: HLA-B*39:01; experiment: as above
[21] = target: HLA-B*57:01; experiment: as above
[22] = target: HLA-A*02:16; experiment: as above
[23] = target: HLA-A*02:01; experiment: as above
[24] = target: HLA-B*07:02; experiment: IEDB peptide-MHC binding, purified MHC/competitive/fluorescence; ≥ and ≤ were set here for values at or beyond the usual limits of such assays; conditions: source organism: Zaire ebolavirus
[25] = target: HLA-A*26:01; experiment: IEDB peptide-MHC binding, purified MHC/competitive/fluorescence; filed as Kd, often an IC50 or EC50 that approximates it; ≥ and ≤ were set here for values at or beyond the usual limits of such assays; conditions: source organism: Campylobacter jejuni subsp. jejuni NCTC 11168 = ATCC 700819
[26] = target: HLA-B*51:01; experiment: as above; conditions: source organism: Campylobacter jejuni subsp. jejuni NCTC 11168 = ATCC 700819
[27] = target: HLA-A*02:12; experiment: as above; conditions: source organism: Campylobacter jejuni subsp. jejuni NCTC 11168 = ATCC 700819
[28] = target: HLA-B*46:01; experiment: as above; conditions: source organism: Campylobacter jejuni subsp. jejuni NCTC 11168 = ATCC 700819
[29] = target: HLA-A*02:03; experiment: as above; conditions: source organism: Campylobacter jejuni subsp. jejuni NCTC 11168 = ATCC 700819
[30] = target: HLA-B*15:01; experiment: as above; conditions: source organism: Campylobacter jejuni subsp. jejuni NCTC 11168 = ATCC 700819
[31] = target: HLA-B*18:01; experiment: as above; conditions: source organism: Campylobacter jejuni subsp. jejuni NCTC 11168 = ATCC 700819
[32] = target: HLA-A*02:11; experiment: as above; conditions: source organism: Campylobacter jejuni subsp. jejuni NCTC 11168 = ATCC 700819
[33] = target: HLA-A*68:02; experiment: as above; conditions: source organism: Campylobacter jejuni subsp. jejuni NCTC 11168 = ATCC 700819
[34] = target: HLA-A*03:01; experiment: as above; conditions: source organism: Campylobacter jejuni subsp. jejuni NCTC 11168 = ATCC 700819
[35] = target: HLA-A*24:02; experiment: IEDB peptide-MHC binding, purified MHC/competitive/fluorescence; ≥ and ≤ were set here for values at or beyond the usual limits of such assays; conditions: source organism: Zaire ebolavirus
[36] = target: HLA-A*02:01; experiment: as above; conditions: source organism: Zaire ebolavirus
[37] = target: HLA-A*29:02; experiment: IEDB peptide-MHC binding, purified MHC/competitive/fluorescence; filed as Kd, often an IC50 or EC50 that approximates it; ≥ and ≤ were set here for values at or beyond the usual limits of such assays; conditions: source organism: Brucella canis ATCC 23365
[38] = source organism: La Crosse virus
[39] = source organism: Cryptosporidium parvum Iowa II
[40] = source organism: Rickettsia conorii
[41] = source organism: Rickettsia sibirica
[42] = source organism: Campylobacter jejuni subsp. jejuni NCTC 11168 = ATCC 700819

Q: How did the Kd [1, 38] turn out when YRKPSGGVF was run?
A: The Kd was no less than 20 µM.

Q: And the Kd [2, 38]?
A: Its Kd is 0.166 µM.

Q: And the Kd [3, 38]?
A: Its Kd is no less than 20 µM.

Q: What about the Kd [4, 38] of the same sequence?
A: Its Kd is no less than 20 µM.

Q: And the Kd [5, 38]?
A: The Kd was no less than 20 µM.

Q: And the Kd [6, 38]?
A: Its Kd is no less than 20 µM.

Q: What about the Kd [7, 38] of the same sequence?
A: The Kd was 0.232 µM.

Q: And the Kd [8, 38]?
A: The Kd was 0.797 µM.

Q: And the Kd [9, 38]?
A: The Kd was no less than 20 µM.

Q: What about the Kd [10, 38] of the same sequence?
A: The Kd was no less than 20 µM.

Q: What about the Kd [11, 38] of the same sequence?
A: The Kd was 6.06 µM.

Q: What about the Kd [12, 38] of the same sequence?
A: The Kd was 4.78 µM.

Q: What about the Kd [13, 38] of the same sequence?
A: Its Kd is no less than 20 µM.

Q: And the Kd [14, 38]?
A: Its Kd is no less than 20 µM.

Q: And the Kd [15, 38]?
A: Its Kd is no less than 20 µM.

Q: What about the Kd [16, 38] of the same sequence?
A: Its Kd is no less than 20 µM.

Q: How did the Kd [17, 39] turn out when FLYPSWSLY was run?
A: Its Kd is no less than 20 µM.

Q: What about the Kd [18, 39] of the same sequence?
A: Its Kd is no less than 20 µM.

Q: And the Kd [19, 39]?
A: Its Kd is no less than 20 µM.

Q: And the Kd [20, 39]?
A: Its Kd is no less than 20 µM.

Q: What about the Kd [21, 39] of the same sequence?
A: Its Kd is no less than 20 µM.

Q: What about the Kd [22, 39] of the same sequence?
A: The Kd was 0.101 µM.

Q: What about the Kd [23, 39] of the same sequence?
A: The Kd was 0.169 µM.

Q: Which results are given for RTGDIGCFK?
A: Kd [1, 40]: ≥ 20 µM; Kd [2, 40]: ≥ 20 µM; Kd [3, 41]: 0.0688 µM; Kd [4, 40]: ≥ 20 µM; Kd [5, 41]: 0.223 µM; Kd [6, 40]: ≥ 20 µM; Kd [7, 40]: ≥ 20 µM; Kd [8, 40]: ≥ 20 µM; Kd [9, 40]: ≥ 20 µM; Kd [10, 41]: 0.0355 µM; Kd [11, 40]: ≥ 20 µM; Kd [12, 40]: ≥ 20 µM; Kd [13, 40]: ≥ 20 µM; Kd [14, 40]: ≥ 20 µM; Kd [15, 40]: ≥ 20 µM; Kd [16, 41]: 0.836 µM

Q: For ENTNTSKST, which IC50 [24] is on record?
A: Its IC50 is no less than 200 µM.

Q: AELIDSFTW was tested. Which Kd [25] did it give?
A: Its Kd is no less than 20 µM.

Q: What about the Kd [17, 42] of the same sequence?
A: Its Kd is no less than 20 µM.

Q: And the Kd [18, 42]?
A: The Kd was no less than 20 µM.

Q: And the Kd [19, 42]?
A: Its Kd is no less than 20 µM.

Q: And the Kd [20, 42]?
A: The Kd was no less than 20 µM.

Q: What about the Kd [26] of the same sequence?
A: The Kd was no less than 20 µM.

Q: And the Kd [27]?
A: Its Kd is no less than 20 µM.

Q: What about the Kd [28] of the same sequence?
A: The Kd was no less than 20 µM.

Q: And the Kd [29]?
A: The Kd was no less than 20 µM.

Q: What about the Kd [30] of the same sequence?
A: Its Kd is no less than 20 µM.

Q: And the Kd [21, 42]?
A: Its Kd is no less than 20 µM.

Q: What about the Kd [31] of the same sequence?
A: Its Kd is 0.462 µM.

Q: And the Kd [22, 42]?
A: Its Kd is no less than 20 µM.

Q: And the Kd [32]?
A: Its Kd is no less than 20 µM.

Q: And the Kd [33]?
A: The Kd was no less than 20 µM.

Q: What about the Kd [23, 42] of the same sequence?
A: Its Kd is no less than 20 µM.

Q: And the Kd [34]?
A: Its Kd is no less than 20 µM.

Q: How did the IC50 [24] turn out when RRTRREAIV was run?
A: Its IC50 is 37.7 µM.

Q: What about the IC50 [35] of the same sequence?
A: The IC50 was 63.3 µM.

Q: What about the IC50 [36] of the same sequence?
A: Its IC50 is no less than 5060 µM.

Q: Which Kd [37] does the source give for QWALLPYLF here?
A: Its Kd is no more than 0.0001 µM.
